Laboratory results: the supplement of paper PMC9170038

Tested on: K4 kissing-loop RNA reporter
Assay: apparent KD of K4 kissing-loop reporter; higher = weaker reporter binding
Details: Eterna round: R107
Experimental: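 RNA-MaP round R107: designed RNA switches with theophylline, tryptophan, arginine or FMN aptamers are transcribed on-chip within common flanks. They are titrated with a labelled K4 kissing-loop RNA reporter in RNA-MaP buffer (100 mM Tris pH 7.5, 80 mM KCl, 4 mM MgCl2), without ligand or with the indicated ligand. Median apparent KD per design.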

[1] = input ligand: theophylline 20 uM
[2] = input ligand: tryptophan 2.4 mM
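Also: bound reporter read as fluorescence of individual clusters on recovered sequencing chips by microscopy, with normalized cluster intensities fitted with a binding model.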

Row | Sequence | apparent KD of K4 kissing-loop reporter (input ligand: FMN 200 uM) | apparent KD of K4 kissing-loop reporter (input ligand: arginine 13.2 mM) | apparent KD of K4 kissing-loop reporter (input ligand: none) | apparent KD of K4 kissing-loop reporter [1] | apparent KD of K4 kissing-loop reporter [2]
1 | AGGAUGUAGUGAUGUUAUAUAAGAAGUAAACGAGGACCGGUACGGCCGCCACUCGAAGCGGCUACUAGCGCGCGCGCGCGCGCGC [ExTryptoA.Ca] | 298 nM | 345 nM | 263 nM | 336 nM | 259 nM
2 | AGGCACGAGCAAGGAUAUCGAGUAGAGUGAUGUUCUGCCUGGGUUGGCCCGUAAGGGCCUUCCCAGCGAGAAGGUGCUCGUGCCU [#2 Same State - FMN A Attempt #10 (HarryS)] | 233 nM | 505 nM | 647 nM | 679 nM | 536 nM
3 | AGGCACGAGCAAGGAUAUCGAGUAGAGUGAUGUUCUGCCUGGGUUGGCUCGCAAGGGCCUUCCCAGCGAGAAGGUGCUCGUGCCU [#2 Same State - FMN A Attempt #17 (HarryS)] | 277 nM | 743 nM | 772 nM | 745 nM | 830 nM
4 | AGGGAUGUUAAAGGAUAUAGAAAGUGAUGUUAGAAAGUGAGUGAUGUUGAUGUAAGUGAUGAUAUGUUAGAAGGUUAACAAAACG [abc] | 212 nM | 111 nM | 192 nM | 169 nM | 144 nM
5 | AGGGUAAGGCGUUAACAUGACACCUGGGAAGGAGCGCGGUACACCGCAGGUAGGUCGCCCAGUGAUGUUGGGUGUAAGUAUGAGU [KL-XArg-A23] | 137 nM | 109 nM | 135 nM | 146 nM | 115 nM
6 | AGGUGAGAGUGAAGGAGCGAUCGCGCCAGUGAUGUUGGUGAGCAUGACGAAAGUCAUGCCGAUCAGGUAGGUCGCACUCUUACUC [Omei KL Arginine B SS B v3] | 700 nM | 421 nM | 663 nM | 547 nM | 798 nM
7 | AGGUUUUGAUUAGGAUAUGCACUGAGGAGGAGAAUAUAGUGAUGUUAUAUAAGAGGAAGUAGUAGAGUAGAAGGGAUUGAGGUUU [SSFMNB.S] | 208 nM | 167 nM | 224 nM | 210 nM | 158 nM
8 | AGUAAUGUCACGGCCGCCACUCUUUAUUGUUUUUAUAGUUAUAAAUCUUGCCAGUGAUGUUGGUAGAGGACCGGGUGACUUAAUA [#26 K4 Tryptophan B Same State] | 222 nM | 208 nM | 245 nM | 199 nM | 194 nM
9 | AGUACGGACACGGCCGCCACUCAGAAGAAGACAGUAGUGAUGUUACUGAUGGUGAGAAUAAUAAAGAGGACCGGGUGUCGUGCAA [#05 K4 Tryptophan B Same State] | 270 nM | 191 nM | 286 nM | 230 nM | 171 nM
10 | AGUGAUGUGGGAAGGAGCGGUAUAUGAGUUCAGUGAUGUUGAAGUGAUGCUGUAGUGUUGUGCCAGGUAGGUCGCCUAGAUGUUA [KL-XARG B25] | 333 nM | 254 nM | 316 nM | 226 nM | 233 nM
11 | AGUGAUGUUCCUCCUCUUGGUCUUGGUGGGCGAGGACCGGUACGGCCGCCACUCGAUGUGGGAGUGAUGUUUCCAUAUGAUGUUU [Tryptophan A] | 568 nM | 580 nM | 621 nM | 675 nM | 401 nM
12 | AGUGAUGUUGAGUUAUGUUAGUGAAGUGAUCGAGGACCGGUACGGCCGCCACUCGAGUGAUGAGUGAGUGAUGUUUGUUUAGUGA [bvbmullin] | 639 nM | 487 nM | 857 nM | 692 nM | 404 nM
13 | AGUGAUGUUGUGUGAUGUUAGUGAAGUGAUCGAGGACCGGUACGGCCGCCACUCGAGUGAUGAGUGAGUGAUGUUUGUUUAGUGG [#17 K4 Tryptophan A Same State] | 258 nM | 124 nM | 206 nM | 186 nM | 139 nM
14 | AGUGAUGUUGUGUUAUGCUAGGGAAGUGAUCGAGGACCGGUACGGCCGCCACUCGAGUGAUGAGUGAGUGAUGUUUGUUUAGGGA [sdsmullin] | 1100 nM | 480 nM | 961 nM | 844 nM | 490 nM
15 | AGUGAUGUUUCUUUUAAGAGUGAUGUUUUUCGAGGACCGGUACGGCCGCCACUCGAGUGAUGAGUGCGUUGUUGUGAUGUUUAGU [#12 K4 Tryptophan A Exclusion] | 461 nM | 313 nM | 425 nM | 459 nM | 303 nM
16 | AGUGGUGUUGUGUUAUGUUUGGGAAGUGAUCGAGGACCGGUACGGCCGCCACUCGAGUGAUGAGUGAGUGAUGUUUGUUUAGGGA [whbob_SS_Tryp_A_m10] | 927 nM | 636 nM | 1530 nM | 646 nM | 658 nM
17 | AGUGUGCAAAAGCACACUCAGAACAAGGACAAGGAUAUCUACUAAUAGAGAAGGUGUCCUUUCCUUAGUGAUGUUAAGGAACUGA [Omei KL FMN A SS D v5] | 278 nM | 524 nM | 640 nM | 680 nM | 615 nM
18 | AGUGUUGUUUUUUUUAAGAGUGAUGUUUUUCGAGGACCGGUACGGCCGCCACUCGAGUGAUGAGUGAGGUGUGGUGAUGAUUAGU [#10 K4 Tryptophan A Exclusion] | 816 nM | 790 nM | 1050 nM | 664 nM | 337 nM
19 | AGUUCUUGCCGAAGGAGCGAGGCAGAGUGAUGUUCUGCAGAGGUCGAAAGACCUCAACUGCCUCAGGUAGGUCGCGGCAUGAACA [Omei KL Arginine B Exc A v6] | 291 nM | 298 nM | 563 nM | 469 nM | 476 nM
20 | AUAAACUUGCAGUGAUGUUGCAAGUAAGACUAGGAUAUCAGGAAACUGAGAAGGAGUCAUCUCCUUCAACUGCAAGAAUGAAGGA [[K1]-[K2]-[F1]-[F2]-[F]'-[K]'-[F]''_Design4] | 147 nM | 108 nM | 129 nM | 104 nM | 133 nM
21 | AUAGGAGUGAUGUUCCUUAGUCUCUCCGAUACCAGUAUGGAAACAUACCCUUGGCAGCGGGAGACCGCAGAUUAGGAAACUAGUC [Theophylline A K4 5] | 178 nM | 179 nM | 185 nM | 205 nM | 172 nM
22 | AUAGGCUAGCGAAACGCUAGCCUAACAGAUACCAGUCGCGAAAGCGACCCUUGGCAGCUGCUGAGUGAUGUUCAGGUGAAUGAAU | 442 nM | 285 nM | 418 nM | 403 nM | 374 nM

Row | Sequence | apparent KD of K4 kissing-loop reporter (input ligand: FMN 200 uM) | apparent KD of K4 kissing-loop reporter (input ligand: arginine 13.2 mM) | apparent KD of K4 kissing-loop reporter (input ligand: none) | apparent KD of K4 kissing-loop reporter [1] | apparent KD of K4 kissing-loop reporter [2]
23 | AUAUAUAACUGAAGGAGCGAGGCCAAAUAUAUAUAGUGAUGUUAUAUAAAGGCACAUAGGCCUCAGGUAGGUCGCAGAAUAAUAU [AstrosExyArGB#1] | 284 nM | 274 nM | 277 nM | 270 nM | 281 nM
24 | AUCGUUGUCUGAGGAUAUCGGUUAUCUGUAGUGAUGUUACAGUAUAUUGAUAUUAAAGAUUCUAUUCGAGAAGGCAGACAACGUA [JR_Nu3_ExcFMNB_Sub023] | 75.5 nM | 62.7 nM | 67.2 nM | 57.9 nM | 61.9 nM
25 | AUGAGGAGCAGUGAUCCUACUCCAUGGGAAGGAGCGUAGGAUACUACAGGUAGGUCGCCCAGUGAUGUUGGGCGCGUGCUCUUGG [Isatquesra] | 140 nM | 130 nM | 135 nM | 148 nM | 150 nM
26 | AUGCAGUGAUGUUGCUUUGUAUAAACAGAUACCAGUGAAUUUUAACACCCUUGGCAGCUGAUAGAUUCUUAAUUCUAUUAUAUAA [JR_SSTheophyA_Sub020] | 164 nM | 189 nM | 165 nM | 197 nM | 140 nM
27 | AUGCAUGAAAGUGAUGUUUUCAGUAAUGGAAAGGAUAUGCGCUGGUGCAGAAGGUUCUAAAGUGCAUCCAACAACUGGGUAGGCC [theeternabot_sameState_KL_FMN_A_36] | 218 nM | 316 nM | 322 nM | 273 nM | 310 nM
28 | AUGCGACGUGCGGCCGCCACUCGGAUGCGAGUGAUGUUCGCGGGCCGGCCGCAAGGCCGGCAUUCGAGGACCGGGCAUCGGUGUA [#2 Same State - Tryptophan B Attempt #1 (HarryS)] | 420 nM | 496 nM | 546 nM | 493 nM | 116 nM
29 | AUGCUUAUAAUAACACUAUAUACAACUGAAGGAGCGACAAUAAAGUCAGGUAGGUCGCAGAAUAAAUGAGUGAUGUUCAUUUUUA [JR_ExcArginiA_Sub010] | 113 nM | 138 nM | 113 nM | 144 nM | 84.2 nM
30 | AUUAAUAUCACGGCCGCCACUGAAUAUUGUUUUUAUAUUUAGAAUAAUUGCCAGUGAUGUUGGAUCAGGACCGGGUGAGUUUAUA [JR_SSTryptoB_Sub007] | 544 nM | 362 nM | 461 nM | 377 nM | 421 nM
31 | AUUAAUUUCAGAGGAUAUCGUUAUUUUUUUAAGUAUAAUCUAUUUUGCAGUGAUGUUGCUAUUAAUCGAGAAGGCUGAUUUAUAA [JR_SSFMNB_Sub020] | 109 nM | 140 nM | 75.3 nM | 136 nM | 72.2 nM
32 | AUUCGUUUAUGUGAUACCAGACUUUGCAGUGAUGUUGCAUUUAUUUUUGAAUUUUAGUUUGUCCCUUGGCAGCACUAUUUAUUUA [JR_SSTheophyB_Sub005] | 44.1 nM | 87.8 nM | 50.5 nM | 83.1 nM | 42.3 nM
33 | AUUCUAUGGAGUGAUGUUCCUGUGAUGUCACGAGGACCGGUACGGCCGCCACUCGAUGUAUUGGUUUUUGAAAGAAACAACUGCA [Same State-Tryptophan A] | 566 nM | 701 nM | 842 nM | 773 nM | 279 nM
34 | AUUUAAUUAACUGAUACCAGACUUUUUGUUUUGAUAAUUACUAGUGAUGUUAGUGUUUCUGUCCCUUGGCAGCAGAAUCUACUUA [JR_ExcTheophyB_Sub018] | 145 nM | 280 nM | 179 nM | 347 nM | 137 nM
35 | AUUUAUGUAUCAGGAUAUUAGUGAUGUUUGUUUUUGUUAGUGAUGUUGAUAUUUGUUUUAUGUAUUUAAGAAGGGAUUGAGAUGU [wwewmullin] | 58.2 nM | 18.5 nM | 34.7 nM | 24.2 nM | 45.2 nM
36 | AUUUGUUUAUGUGAUACCAGACUAAGCAGUGAUGUUGCUUUUAUUUUUGAAUUUUAAAUAGUCCCUUGGCAGCACUAUGUAUUUA [JR_SSTheophyB_Sub010] | 60.6 nM | 93.1 nM | 70.2 nM | 99.2 nM | 60.3 nM
37 | AUUUUGUUGUCAGGAUAUUAGUAUGGUUUUGGUUUGUUAGUGAUGUUGAUGGUUUGUUUAUGUAUUUAAGAAGGGAUUUAGCGGU [swwsgumullin] | 693 nM | 463 nM | 534 nM | 573 nM | 424 nM
38 | AUUUUUUUAUCAGGAUAUUAGUGUUGGUUUGUUUUGUUAGUGAUGUUGAUAUUUGUUUUAUGUAUUUAAGAAGGGAUUGUGAUGU [huupullin] | 473 nM | 371 nM | 409 nM | 381 nM | 264 nM
39 | CAAAUGUUGUCAGGAUAUGAGCGCAGUGAUGUUGCGGUUGUAUUUAUGACUGGAGCAGCGUAAGCCUCAGAAGGGACAAGUUGCC [Qubioran] | 167 nM | 92.2 nM | 106 nM | 84.9 nM | 99.3 nM
40 | CAACGAGUGAUGGUCGUUGACGGCCAUCCCGAGGAUAUGGGAUUAUCCAGAAGGCGGGAUCGCCGGGAGUGAUGUUCCCUGAUCA [Same State FMN A GF 14] | 139 nM | 181 nM | 168 nM | 300 nM | 151 nM
41 | CAAGUCGAAAAGUGAUGUUUUUCAUACGAUACCAGCAACCAGACAUGCCCUUGGCAGCGUCCAUUACGUUUCUGAGCCCGUACAG [theeternabot_exclusion_KL_Theo_A_40] | 360 nM | 336 nM | 389 nM | 388 nM | 308 nM
42 | CACCAUGAAUUCUCUAGGAGUGAUGUUUUUCGAGGACCGGUACGGCCGCCACUCGGACGAGGACCGUGGGAGCGGCGAAGCGGCU [?oegmullin] | 99.2 nM | 59.1 nM | 767 nM | 169 nM | 104 nM
43 | CACCCAGUCCUCGAUACCAGACUGGCACGUCAAAAGGUCCAGUGAUGUUGAGCCUAACAAGUCCCUUGGCAGCGACCAGUGUAUU [theeternabot_exclusion_KL_Theo_B_30] | 680 nM | 573 nM | 729 nM | 619 nM | 623 nM
